B1: synthetic peptide corresponding to the N-terminal 1-29 amino acid residues of human GnRH receptor (peptide)
peptide: MANSASPEQNQNHCSAINNSIPLMQGNLP
notes: Custom synthesized; also called 1-29 synthetic peptide; 1-29 peptide
B2: GHR-106 monoclonal antibody (antibody, V domains shown)
VH: QVQLKESGPGLVAPSQSLSITCTVSGFSLSRYSVHWVRQPPGKGLEWLGMIWGGGSTDYNSALKSRLSISKDNSKSQVFLKMNSLQTDDTAMYYCARGNDGYYSFAYWGQGTLVTVSS
VL: DIVMSQSPSSLAVSAGEKVTMSCKSSQSLLNSRTRKNYLAWYQQKPGQSPKLLIYWASTRESGVPDRFTGSGSGTDFTLTISSVQAEDLAVYYCKQSYNLYTFGGGTKLEIK
notes: Murine hybridoma monoclonal antibody raised against the KLH-coupled 1-29 peptide of human GnRH receptor; detected with goat anti-mouse IgG; also called ATCC PTA-10252

Legend:
[1] = molecular target: B2; test: competition cell ELISA, free peptide against GHR-106 on OC-3-VGH cells (FIG. 3B)
[2] = molecular target: B1; test: ELISA on coated peptide
human GnRH receptor = molecular target: T1, human GnRH receptor (human, UniProt P30968 1-328); test: ELISA, microwells coated with 1-29 synthetic peptide or OC-3-VGH cancer cells, AP-labeled goat anti-mouse IgG
T1 construct: whole, on cells; Endogenous receptor on human cancer cell lines; also called GnRHR1; gonadotropin releasing hormone receptor
T1 sequence (looked up): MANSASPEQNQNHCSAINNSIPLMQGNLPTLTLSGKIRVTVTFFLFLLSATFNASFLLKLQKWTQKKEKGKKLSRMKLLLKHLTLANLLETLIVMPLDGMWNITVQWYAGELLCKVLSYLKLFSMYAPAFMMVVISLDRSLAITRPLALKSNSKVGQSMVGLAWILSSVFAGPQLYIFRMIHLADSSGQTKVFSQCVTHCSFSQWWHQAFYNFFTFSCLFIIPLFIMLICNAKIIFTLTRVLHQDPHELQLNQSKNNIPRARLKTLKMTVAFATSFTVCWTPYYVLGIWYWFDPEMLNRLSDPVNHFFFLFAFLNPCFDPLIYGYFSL

[3] = molecular target: B1; test: ELISA on coated peptide (FIG. 2A)

B1
binding result [1]: binds

B2
binding result [2]: binds | Kd (human GnRH receptor): 2 nM

B3: GHR-103 monoclonal antibody (antibody, V domains shown)
VH: QVQLKESGPGLVAPSQSLSITCTVSGFSLSRYSVHWVRQPPGKGLEWLGMIWGGGSTDYNSALKSRLSISKDNSKSQVFLKMNSLQTDDTAMYYCARGNDGYYSFAYWGQGTLVTVSS
VL: DIVMSQSPSSLAVSAGEKVTMSCKSSQSLLNSRTRKNYLAWYQQKPGQSPKLLIYWASTRESGVPDRFTGSGSGTDFTLTISSVQAEDLAVYYCKQSYNLYTFGGGTKLEIK
notes: Murine monoclonal
binding result [3]: binds
